# Source: FireProtDB (doi:10.1021/bi990893b)
# B1: Cytochrome b5 wild type, P00171 (protein)
# chain: MAEESSKAVKYYTLEEIQKHNNSKSTWLILHYKVYDLTKFLEEHPGGEEVLREQAGGDATENFEDVGHSTDARELSKTFIIGELHPDDRSKITKPSESIITTIDSNPSWWTNWLIPAISALFVALIYHLYTSEN
# Conditions: Bos taurus; pH 7; Thermal; Absorbance; Sodium phosphate 100 mM; whole UniProt chain shown
protein,measurement,value
B1,Tm,67.2 °C
same,unfolding enthalpy (van 't Hoff),95.1 kcal/mol
